Laboratory results as given in the nanobody polyreactivity screen of Harvey et al. (2022).

Assay: yeast display, Sf9 membrane polyspecificity reagent, FACS + sequencing; frameworks hold sequencing errors
How it was run: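 Using colony PCR, genes from sorted yeast display clones were amplified, then sequenced on MiSeq at 2 × 250 and filtered by CDR length. The clones had been stained with 10% biotinylated, detergent-solubilized Sf9 membrane reagent for 1 hour at 4 °C and sorted by FACS into low and high (top ~1%) gates on anti-HA and streptavidin fluorescence. Polyreactivity labels come from the gate of origin.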

Sequence | polyreactivity (PSR sort gate)
QVKLVESGGGLVQAGGSLRLSCAASGITIRFNAMGWYRQAPGKERELVPAITSSGGRTYYADSVKVRFTISRDNAKNTVYLQMNSLKPEDTAVYYCAAYYRYSTTEDRSVYRGYYYWGQGTQVTVSS | high polyreactivity
QVQLVESGGGLVQAGGSLRLSCAASGRIFSAYTMGWYRQAPGKERELVAAITWSGGTTYYADSVKGRFTISRDNAKNTVYLQINSLKPEDTAVYYCAAESSWYVLYGSYYRSGLEYWGQGTLVTVSS | low polyreactivity
QVQHVESGGGLVQAGGSLRLSCAASGRIFGWYAMGWYRQAPGKERELVAVISWRGRTYYADSVKGRFTISRDNAKNTVYLQMNSLKPEDTAVYYCNARSRSAYDYWGQGTQVTVSS | high polyreactivity
QVQLVESGGGIVQAGGSLRLSCAASGSIFRWNAMGWYRQAPGKESELVAAIRWSSGSTYYADSVKGRFTISRDNAKNTVYLQMNSLKPEDTAVYYCAASRATIKYPKREYWGQGTQVTVSS | high polyreactivity
QVQLVESGGGLVQAGGSLRLSCAASGLIFPRYGMGWYRQAPGKERELVAAISRSGGNTYYADSVKGRFTISRDNAKNTVYLQMNSLKPEDTAVYYCAAYFSTAPKSQYKLDYRGQGTQVTVSS | high polyreactivity
QVQLVESGGGLVQAGGSLRLSCAASGFISDVYAMGWYRQAPGKERELVAVITWRGSTYYADSVKGRFTISRDNAKNTVYLQMNSLKPEDTAVYYCAAESQGDWAFDYWGQGTQVTVSS | low polyreactivity
QVQLVESGGGLVQAGGSLRLSCAASGNTLAKYAMGWYRQAPGKERELVAAISWSGGRTFYADSVKGRFTISRDNAKNTVYLQMNSLKPEDSAVYYCNKVKGQSFSSYGYWGQGTQVTVSS | high polyreactivity
QVQLVESGAGLVQEGGSLRLSCAASGSIFQAYAMGWYRKAPGKERELVANISSGGSTNYADSVKGRFTISRDNAKNTVYLQMNSLKPEDTAVYYCAASRWIFVLTYEYDYWNRRDYWGQGTQVTVSS | low polyreactivity
QVQLVESGGGLVQAGGSLRLSCAASGSIFNRYAMGWYRQAPGKERELVAAISTHTGTTYYADSVKGRFTISRDNAKNTDYLQMNSLKPEDTAGYYCAKRSRYGYGKSYDYWGQGTQVTVSS | high polyreactivity
QVQLVESGGGLVQAGGSLRLSCAASGFIFSYYAMGWYRQAPVKERELVAAISSSGGTTYADSVKGRFTISRDNAKNTFYLQMNSLKPEDTAVYYCARVQYWFYKPMYYWGQGTQVTVSS | high polyreactivity
QVQLVESGGGLVQAGGSLRLSCDASGRIFYANAMGWYRQAPGKERELVAGISSGGITNYADSVKGRFTISRDNAKNTVYLQMNSLKPEDTAVYYCAARRWSTGGYGQFDYWGQGTQVTVSS | low polyreactivity
QVQLVESGGRLVQAGGSLRLSCAASGRTFNRNAMVWYRQAPGKERELVAAISRGGGGTYYADSVMGRFTISRDNAKNTVYLQMNSLKPEDTAVYYCNAAPYYVMYLLWSSNTYDYWGQGTQVTVSS | high polyreactivity
QVQLVESGGGLVQAGGSLRLSCAASGITFWYNAMGWYRQAPGKERELVAAISGGGGSTYYADSVKGRFTISRDNAMNTVYLQMNSLKPEDTAVYYCAARQVARVYSGRYGYWGQGTQVTVSS | high polyreactivity
QVQLVESGGALVQAGGSLRLSCAASGYIFDRYAMGWYRQAPGKEWELVAAISGRGGSTYYADSVKGRFTISRDNAKNTVYLQMNSLKPEDTAVYYCAAARSWHLYHRYDYWGQGTQVTVSS | high polyreactivity
QVQLVESGGGLVQAGGSLRLSCAASGSTVYYNAMGWYRQAPGKEREFVAAINCRGGSTYYADSVKGRFTISRDNSKNTVYLQMNSLKPEDTAVYYCAAEEPSTYYYVRSGYDYHFWEMYSWGQGTQVTVSS | low polyreactivity
QVQLVESGGGLVQAGGSLRLSCAASGRTFGVYAMGWYRQAPGKERELVAAIRWSGGGTYYADSVKGRFTISPDNAKNTVYLQMNSLKPEDTAVYYCAATFQNSPYTRYTDMYYWGQGTQVTVSS | low polyreactivity

Sequence | polyreactivity (PSR sort gate)
QFQLVESGGGLVQAGGSLRLSCAASGIIFGNNAMGWYRQAPGKERELVAAIRWSTGTTYYADSVKGRFTISRDNAKNTVYLQMNSLKPEDTAVYYCAARLRREYGYWGQGTQVTVSS | high polyreactivity
QVQLVESGGGLVQAGGSLRLSCAASGSILAGYAMGWYRQAPGKERELVAAITGGYVRSYYADSVKGRFTISRDNAKNTDYLQMNSLKPEDTAVYYCAATWGSVQKGTYYYWGQGTQVTVSS | low polyreactivity
QVQLVESGGGLVQAGGSHRLSCAASGIISPFYAMGWYRQAPGKERELVADISTGGTTTYADSVKGRFTISRDNAKNTVYLQMNSLKPEDTAVYYCNAEVSLTYYWIVWASYDYWGQGTQVTVSS | low polyreactivity
QVQLVESGGGLVQAGGSLRLSCAASGRTFWGYVKGWYRQAPGKERELVAAITSSTGRTYYADSVKGRFTISRDNAKNTVYLQMNSLKPEDTAVYYCAAGYNGYGLQYYYWGQGTQVTVSS | high polyreactivity
QVQLVESGGGLVQAGGSLRLSCAASGFTFDAYDMGWYRQAPGKERELVAAISWRGIDTTYADSVKGRFTISRDNAKNTVYLQMNSLKPEDTAVYYCAEFVSDATVGPSKGLDYWGQGTQVTVSS | low polyreactivity
QVQLVESGGGLVQAGGSLRLSCAASGSTFSSYAMGWYRQAPGKERELVAAISKHAGSTYYADSVKGRFTISRDNAKNTVYLQMNSLKPEDTAVYYCAKDSSVQAYYGYWYTSTDDYWGQGTQVTVSS | low polyreactivity
QVQLVESGGGLVQAGGSLRLSCAASGLIFDIYAMGWYRQAPGKERELVATISKRGGTTSYADSVKGRFTISRDNAKNTVYLQMNSLKPEDTAVYYCAATTLIAYDYWGQGTQVTVSS | high polyreactivity
QVQLVESGGGLVQAGGSLRLSCAASGFTLAFYGMGWYRQAPGKERELVAAISWSGDSTYYADSVKGRFTISRDNAKNTVYLQMNSLKPEDTAVYYCAKPKRRFYDRPSDYWGQGTQVTVSS | high polyreactivity
QDQLVESGGGLVQAGGSLRLSCAASGSTFYFNAMGWYRPAPGKEREFVAVIDGSGGFTYYADSVKGRFTISRDNAKNTVYLQLNILKPEDTAVYYCNADLVYNTFFYSGGDEYDYWGQGTQVNVSS | high polyreactivity
QVQLEESGGGLVQAGGSLRLSCAASGRTSLAYAMGWYRQATGKEMELVAGITSGGNTNYADSVKGRFTISCDNAKNTVYLQMNSLKPEDTAVYYCNKKKRWQWYSDSVLDYLGFYSWGQGTQVTVSS | low polyreactivity
QVQLVESGGGLVQAGGSLRLSCAASGRTFQYYAMGWYRQAPGKERELVATISYSGGSTSYADSVKGRFTISRDNAKNTVYLQMNSLKPEDTAVYYCAADYYYGDALSPSYPHWDFYYWGQGTQVTVSS | low polyreactivity
QVQLVESGGGLVQAGGSLRLSCAASGLIFSGYAMGWYRQAPGKERELVAAINSGTSTTYADSVKGRFTISRDNAKNTVYLQMNSLKPEDTAVYYCNTPHNQDKPYPGYDYWGQGTQVTVSS | low polyreactivity
QVQLVESGGGLVQAGGSLRLSCAASGSIFYYNAMGWYRQAPGKERELVAAISWSGGSTYYADSVKGRFTISRDKAKNTVYLQMNSLKPEDTAVYYCNAVGWYTYFYGSRKYNSWGQGTQVTVSS | low polyreactivity
QVQLVESGGGLVQAGGSLRLSCAASGSIFTVNAMGWYRQARGKERELVAAISSGGSTHYADSVKGRFTISRDNAKNTVYLQMNSLKPEDTAVYYCARDRPGDYAGYDYWGQGTQVTVSS | low polyreactivity
QVQLVESWGGLVQAGGSLRLSCADSGSIFGYYAMGWSRHAPGKETELVAAISSGGRTDYADSVKGRFTISRDNAKNTVYLQMNSRKQEDTAVYYCAALQRTGPYAGSSGYWGQGTQVTVSS | high polyreactivity
